Laboratory results as given in US20050277175.

Biological target: bovine aggrecan (UniProt P13608)
Sequence (P13608 20-2364): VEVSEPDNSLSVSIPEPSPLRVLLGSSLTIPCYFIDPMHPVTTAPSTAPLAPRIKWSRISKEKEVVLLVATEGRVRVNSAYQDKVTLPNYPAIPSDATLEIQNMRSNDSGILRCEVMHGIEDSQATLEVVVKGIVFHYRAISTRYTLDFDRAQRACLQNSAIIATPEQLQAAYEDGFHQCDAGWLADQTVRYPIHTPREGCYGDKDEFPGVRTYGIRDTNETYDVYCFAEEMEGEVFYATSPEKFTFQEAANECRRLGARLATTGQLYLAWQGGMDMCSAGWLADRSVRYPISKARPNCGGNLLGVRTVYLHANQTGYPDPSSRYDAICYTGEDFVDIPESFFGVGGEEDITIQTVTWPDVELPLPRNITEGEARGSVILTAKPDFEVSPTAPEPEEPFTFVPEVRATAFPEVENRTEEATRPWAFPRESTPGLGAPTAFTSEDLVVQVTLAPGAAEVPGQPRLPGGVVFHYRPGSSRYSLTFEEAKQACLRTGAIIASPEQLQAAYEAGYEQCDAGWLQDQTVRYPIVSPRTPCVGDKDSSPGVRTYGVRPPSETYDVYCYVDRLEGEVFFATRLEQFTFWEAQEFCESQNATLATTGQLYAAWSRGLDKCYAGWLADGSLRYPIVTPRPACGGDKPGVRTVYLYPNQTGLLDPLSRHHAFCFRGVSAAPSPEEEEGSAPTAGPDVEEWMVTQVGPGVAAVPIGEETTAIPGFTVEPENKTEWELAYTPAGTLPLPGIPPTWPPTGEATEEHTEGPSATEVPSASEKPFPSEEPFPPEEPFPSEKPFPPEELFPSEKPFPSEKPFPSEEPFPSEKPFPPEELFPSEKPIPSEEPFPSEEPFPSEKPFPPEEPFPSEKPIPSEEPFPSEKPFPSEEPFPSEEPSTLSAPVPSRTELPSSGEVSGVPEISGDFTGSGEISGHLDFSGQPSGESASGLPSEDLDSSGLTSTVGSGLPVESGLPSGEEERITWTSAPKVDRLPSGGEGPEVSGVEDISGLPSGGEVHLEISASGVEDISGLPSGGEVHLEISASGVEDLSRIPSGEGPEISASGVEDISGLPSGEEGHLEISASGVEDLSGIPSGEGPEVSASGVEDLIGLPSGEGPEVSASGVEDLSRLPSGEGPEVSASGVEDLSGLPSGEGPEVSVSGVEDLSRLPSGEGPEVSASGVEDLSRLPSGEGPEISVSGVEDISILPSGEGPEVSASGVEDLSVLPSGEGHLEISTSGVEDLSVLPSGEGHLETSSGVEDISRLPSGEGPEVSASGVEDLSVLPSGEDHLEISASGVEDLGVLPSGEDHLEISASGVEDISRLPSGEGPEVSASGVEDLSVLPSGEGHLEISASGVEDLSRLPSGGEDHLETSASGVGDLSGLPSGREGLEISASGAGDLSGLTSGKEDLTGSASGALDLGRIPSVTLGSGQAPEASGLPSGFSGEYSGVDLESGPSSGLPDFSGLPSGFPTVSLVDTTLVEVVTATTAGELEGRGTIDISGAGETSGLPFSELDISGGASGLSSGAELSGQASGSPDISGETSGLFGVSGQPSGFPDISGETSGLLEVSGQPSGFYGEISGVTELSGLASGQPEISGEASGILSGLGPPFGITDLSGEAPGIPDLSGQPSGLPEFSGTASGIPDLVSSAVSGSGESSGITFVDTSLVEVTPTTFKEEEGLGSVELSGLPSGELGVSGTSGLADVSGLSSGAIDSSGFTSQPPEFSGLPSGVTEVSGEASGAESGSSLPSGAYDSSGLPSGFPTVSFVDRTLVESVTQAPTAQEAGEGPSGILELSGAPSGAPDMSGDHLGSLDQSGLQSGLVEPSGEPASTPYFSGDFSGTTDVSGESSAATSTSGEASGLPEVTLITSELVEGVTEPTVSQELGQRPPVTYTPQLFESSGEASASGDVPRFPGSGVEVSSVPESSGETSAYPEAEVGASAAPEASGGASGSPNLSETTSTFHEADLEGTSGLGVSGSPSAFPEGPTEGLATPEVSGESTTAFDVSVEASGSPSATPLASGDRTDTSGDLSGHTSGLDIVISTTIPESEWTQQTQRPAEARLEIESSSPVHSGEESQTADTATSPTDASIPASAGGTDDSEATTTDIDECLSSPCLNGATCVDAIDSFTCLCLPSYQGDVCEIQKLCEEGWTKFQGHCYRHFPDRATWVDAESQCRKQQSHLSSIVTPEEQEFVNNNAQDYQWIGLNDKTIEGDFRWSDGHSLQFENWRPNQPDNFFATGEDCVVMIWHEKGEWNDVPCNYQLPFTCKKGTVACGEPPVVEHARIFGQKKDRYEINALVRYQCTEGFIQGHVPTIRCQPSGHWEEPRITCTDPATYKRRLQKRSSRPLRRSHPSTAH

recombinant aggrecanase 1 protein (ADAMTS-4)
aggrecanase activity (digestion of bovine aggrecan, neoepitope Western blot with C1 MAb): Positive control is recombinant aggrecanase 1 protein (ADAMTS-4)
